In article PMC8998802 (2019):

Experiments:
Experiment in all cases: microscale thermophoresis
CaV2.1 AID peptide AID [1] = target: T1, CaV2.1 AID peptide AID (UniProt O00555)
T1 chain: QQIERELNGYMEWISKAE

CaV2.2 AID peptide AID [2] = target: T2, CaV2.2 AID peptide AID (UniProt Q00975, IPPQ present)
T2 chain: QQIERELNGYLEWIFKAE

CaV1.1 AID peptide AID [3] = target: T3, CaV1.1 AID peptide AID (UniProt Q13698, IPPQ present)
T3 chain: QQLDEDLRGYMSWITQGE

CaV1.1 AID peptide AID [4] = target: T4, CaV1.1 AID peptide AID (UniProt Q13698)
T4 chain: QQLDEDLRGYMSWITQGE

CaV2.1 AID peptide AID [5] = target: T5, CaV2.1 AID peptide AID (UniProt O00555, IPPQ present)
T5 chain: QQIERELNGYMEWISKAE

CaV2.2 AID peptide AID [6] = target: T6, CaV2.2 AID peptide AID (UniProt Q00975)
T6 chain: QQIERELNGYLEWIFKAE

B1: CaVβ2 (protein)
chain: not shown
- Kd (CaV2.1 AID peptide AID [1]): 18.3 nM
- Kd (CaV2.2 AID peptide AID [2]): 208 nM
- Kd (CaV1.1 AID peptide AID [3]): 51 nM
- Kd (CaV1.1 AID peptide AID [4]): 24 nM
- Kd (CaV2.1 AID peptide AID [5]): 93 nM
- Kd (CaV2.2 AID peptide AID [6]): 12 nM
